Reference: patent CN114617961A (BEIJING ORIENTAL BAITAI BIOTECHNOLOGY CO LTD; BEIJING …, dated 2022)

T1: LAG-3 (human, UniProt P18627 23-450, limits assumed)
T1 sequence (looked up): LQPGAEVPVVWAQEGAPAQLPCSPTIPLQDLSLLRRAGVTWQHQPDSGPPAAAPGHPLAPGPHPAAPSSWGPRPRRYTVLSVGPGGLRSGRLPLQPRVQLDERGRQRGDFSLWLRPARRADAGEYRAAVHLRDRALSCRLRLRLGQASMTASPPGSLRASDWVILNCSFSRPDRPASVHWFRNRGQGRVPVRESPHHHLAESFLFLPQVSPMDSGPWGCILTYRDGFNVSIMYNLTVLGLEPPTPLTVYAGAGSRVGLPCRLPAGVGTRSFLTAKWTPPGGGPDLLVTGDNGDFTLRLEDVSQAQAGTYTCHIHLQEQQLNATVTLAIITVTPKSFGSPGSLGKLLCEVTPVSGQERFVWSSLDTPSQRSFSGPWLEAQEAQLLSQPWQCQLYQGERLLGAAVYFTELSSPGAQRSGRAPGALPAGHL


Target: T1, LAG-3
Assay: cell-based or functional assay

| Binder | EC50 of IL-2 secretion in mixed lymphocyte reaction (CD4+ T cells + DC, 5 days) |
| --- | --- |
| MA-2 鼠源抗体 (mouse IgG1 / mouse Ck) (antibody, V domains shown) VH: EVQLQQSGAELVKPGASVKLSCTASGFNIKDTYMHWVKQRPEQGLEWIGKIDPANGNTKYDPKFQGKATITADTSSNTAYLQLSRLTSEDTAVYYCARDTTVGLDYWGQGTTLTVSS VL: DIVLTQTPAIMSASLGEKVTMSCRASSSVNYMYWYQQKSDASPKLWIYYTSNLAPGVPARFSGSGSGNSYSLTISSMEGEDAATYYCQQFTSSPSMTFGGGTKLEIKA | 0.03 mg/L |
| MA-1 鼠源抗体 (mouse IgG1 / mouse Ck) (antibody) heavy: EVQLQQSGAELVKPGASVKLSCTASGFNIKDTYMHWVKQRPEQGLEWIGKIDPANGNTKYDPKFQGKATITADTSSNTAYLQLSRLTSEDTAVYYCARDTTVGLDYWGQGTTLTVSSAKTTPPSVYPLAPGSAAQTNSMVTLGCLVKGYFPEPVTVTWNSGSLSSGVHTFPAVLQSDLYTLSSSVTVPSSTWPSETVTCNVAHPASSTKVDKKIVPRDCGCKPCICTVPEVSSVFIFPPKPKDVLTITLTPKVTCVVVDISKDDPEVQFSWFVDDVEVHTAQTQPREEQFNSTFRSVSELPIMHQDWLNGKEFKCRVNSAAFPAPIEKTISKTKGRPKAPQVYTIPPPKEQMAKDKVSLTCMITDFFPEDITVEWQWNGQPAENYKNTQPIMDTDGSYFVYSKLNVQKSNWEAGNTFTCSVLHEGLHNHHTEKSLSHSPG light: DIVITQSTAIMSASLGEKVTMSCRASSSVNYMYWYQQKSDASPKLWIYYTSKLASGVPARFSGSGSGTSYSLTISSMEAEDAATYYCQQWSSNPHTFGGGTKLEIKADAAPTVSIFPPSSEQLTSGGASVVCFLNNFYPKDINVKWKIDGSERQNGVLNSWTDQDSKDSTYSMSSTLTLTKDEYERHNSYTCEATHKTSTSPIVKSFNRNEC | 0.024 mg/L |

Second part, the binder after the results:

| EC50 of IL-2 secretion in mixed lymphocyte reaction (CD4+ T cells + DC, 5 days) | Binder |
| --- | --- |
| 0.076 mg/L | MA-3 鼠源抗体 (mouse IgG1 / mouse Ck) (antibody, V domains shown) VH: EVKLEESGPELVKPGASVKISCKASGYSFTSYYIHWVKQRPGQGLEWIGWIFPGTGNTRYNEKFKGKATLTADTSSSTVYMQLSGLTSEDSAVYFCARIGGRLTGDAMDYWGQGTSVTVSS VL: DIVLTQSTASLAVSLGQRATISCRASESVDSYGNSFMHWYQQKPGQPPKLLIYLASNLESGVPARFSGSGSRTDFTLTIDPVEADDAATYYCQQNNEDPWTFGGGTKLEIKA |
| 0.121 mg/L | MA-4 鼠源抗体 (mouse IgG1 / mouse Ck) (antibody, V domains shown) VH: QVKLEESGPGLVQPSQSLSITCTVSAFSLTTYAVHWVRQSPGKGLEWLGVIWSGGSTDYNTAFISRLNITKDNSKSQVFFKMNSLQANDTAIYYCARLDGTFFDYWGQGTTLTVSS VL: DIVLTQTPAIMSASLGERVTMTCTASSSVSSSYLHWYQQKPGSSPKLWIYSTSNLASGVPARFSGSGSGTSYSLTISSMEAEDAATYYCHQYHRSPPTFGGGTKLEIKA |

Target: T1, LAG-3
Assay: cell-based or functional assay
Remark: another data set of the same source

| Binder | EC50 of T cell proliferation (CCK8) in mixed lymphocyte reaction |
| --- | --- |
| 嵌合抗体CA-1 (antibody, human IgG4 S228P, kappa) heavy: not shown light: DIVITQSTAIMSASLGEKVTMSCRASSSVNYMYWYQQKSDASPKLWIYYTSKLASGVPARFSGSGSGTSYSLTISSMEAEDAATYYCQQWSSNPHTFGGGTKLEIKRTVAAPSVFIFPPSDEQLKSGTASVVCLLNNFYPREAKVQWKVDNALQSGNSQESVTEQDSKDSTYSLSSTLTLSKADYEKHKVYACEVTHQGLSSPVTKSFNRGEC | 0.00723 mg/L |
| 人源化抗体HA-4 (human IgG4 / human Ck) (antibody, V domains shown) VH: QVQLVQSGAEVKKPGASVKVSCKASGYNITDTYMHWVRQAPGQGLEWIGKIDPANGNTKYDPKFQGRATITADTSISTAYMELSRLRSDDTAVYYCARDTTVGLDYWGQGTLVTVSS VL: DIVITQSPAFLSVTPGEKVTITCRASSSVNYMYWYQQKPDASPKLWIYYTSKLASGVPSRFSGSGSGTDYTFTISSLEAEDAATYYCQQWSSNPHTFGGGTKVEIKR | 0.0338 mg/L |
| 人源化抗体HA-5 (human IgG4 / human Ck) (antibody, V domains shown) VH: QVQLVQSGAEVKKPGASVKVSCKASGYNIKDTYMHWVKQAPGQGLEWIGKIDPANGNTKYDPKFQGKATITADTSISTAYMELSRLRSDDTAVYYCARDTTVGLDYWGQGTLVTVSS VL: DIVITQSPAFLSVTPGEKVTITCRASSSVNYMYWYQQKPDASPKLWIYYTSKLASGVPARFSGSGSGTSYTFTISSLEAEDAATYYCQQWSSNPHTFGGGTKVEIKR | 0.0318 mg/L |
| 人源化抗体HA-3 (human IgG4 / human Ck) (antibody, V domains shown) VH: QVQLVQSGAEVKKPGASVKVSCKASGYNITDTYMHWVRQAPGQGLEWIGKIDPANGNTKYDPKFQGRATITADTSISTAYMELSRLRSDDTAVYYCARDTTVGLDYWGQGTLVTVSS VL: DIVITQSPAFLSVTPGEKVTITCRASSSVNYMYWYQQKPDQAPKLLIYYTSKLASGVPSRFSGSGSGTDYTFTISSLEAEDAATYYCQQWSSNPHTFGGGTKVEIKR | 0.015 mg/L |
| 人源化抗体HA-2 (human IgG4 / human Ck) (antibody, V domains shown) VH: QVQLVQSGAEVKKPGASVKVSCKASGYTFTDTYMHWVRQAPGQGLEWIGKIDPANGNTKYDPKFQGRATITADTSISTAYMELSRLRSDDTAVYYCARDTTVGLDYWGQGTLVTVSS VL: DIVITQSPAFLSVTPGEKVTITCRASSSVNYMYWYQQKPDQAPKLLIYYTSKLASGVPSRFSGSGSGTDYTFTISSLEAEDAATYYCQQWSSNPHTFGGGTKVEIKR | 0.0271 mg/L |
| 人源化抗体HA-1 (human IgG4 / human Ck) (antibody, V domains shown) VH: QVQLVQSGAEVKKPGASVKVSCKASGYTFTDTYMHWVRQAPGQGLEWIGKIDPANGNTKYDPKFQGRATITADTSISTAYMELSRLRSDDTAVYYCARDTTVGLDYWGQGTLVTVSS VL: DIVITQSPAFLSVTPGEKVTITCRASSSVNYMYWYQQKPDASPKLWIYYTSKLASGVPSRFSGSGSGTDYTFTISSLEAEDAATYYCQQWSSNPHTFGGGTKVEIKR | 0.00688 mg/L |
